Test system: human HL60 cells
Test: SWATH-MS proteomics, differential protein representation, akirin2 KO vs WT HL60 cells
Assay type: cell-based
Settings: akirin2 KO vs WT HL60 cells, sheet "Under-represented in KO"
Outline: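 Proteins from WT and akirin2 KO HL60 cells (n=3 biological replicates) were FASP trypsin-digested and analyzed by SWATH-MS DIA with variable windows against an IDA-derived spectral library. Identifications at 1% global FDR; quantities normalized to total area sums of all detected proteins.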

B1: sp¦Q9BVI4¦NOC4L_HUMAN (protein, UniProt Q9BVI4 1-516, looked up)
Nucleolar complex protein 4 …: MEREPGAAGVRRALGRRLEAVLASRSEANAVFDILAVLQSEDQEEIQEAVRTCSRLFGALLERGELFVGQLPSEEMVMTGSQGATRKYKVWMRHRYHSCCNRLGELLGHPSFQVKELALSALLKFVQLEGAHPLEKSKWEGNYLFPRELFKLVVGGLLSPEEDQSLLLSQFREYLDYDDTRYHTMQAAVDAVARVTGQHPEVPPAFWNNAFTLLSAVSLPRREPTVSSFYVKRAELWDTWKVAHLKEHRRVFQAMWLSFLKHKLPLSLYKKVLLIVHDAILPQLAQPTLMIDFLTRACDLGGALSLLALNGLFILIHKHNLEYPDFYRKLYGLLDPSVFHVKYRARFFHLADLFLSSSHLPAYLVAAFAKRLARLALTAPPEALLMVLPFICNLLRRHPACRVLVHRPHGPELDADPYDPGEEDPAQSRALESSLWELQALQRHYHPEVSKAASVINQALSMPEVSIAPLLELTAYEIFERDLKKKGPEPVPLEFIPAQGLLGRPGELCAQHFTLS
Fold Change: 0.3572 | Log (Fold Change): -0.4471

B2: sp¦P50570¦DYN2_HUMAN (protein, UniProt P50570 1-870, looked up)
Dynamin-2: MGNRGMEELIPLVNKLQDAFSSIGQSCHLDLPQIAVVGGQSAGKSSVLENFVGRDFLPRGSGIVTRRPLILQLIFSKTEHAEFLHCKSKKFTDFDEVRQEIEAETDRVTGTNKGISPVPINLRVYSPHVLNLTLIDLPGITKVPVGDQPPDIEYQIKDMILQFISRESSLILAVTPANMDLANSDALKLAKEVDPQGLRTIGVITKLDLMDEGTDARDVLENKLLPLRRGYIGVVNRSQKDIEGKKDIRAALAAERKFFLSHPAYRHMADRMGTPHLQKTLNQQLTNHIRESLPALRSKLQSQLLSLEKEVEEYKNFRPDDPTRKTKALLQMVQQFGVDFEKRIEGSGDQVDTLELSGGARINRIFHERFPFELVKMEFDEKDLRREISYAIKNIHGVRTGLFTPDLAFEAIVKKQVVKLKEPCLKCVDLVIQELINTVRQCTSKLSSYPRLREETERIVTTYIREREGRTKDQILLLIDIEQSYINTNHEDFIGFANAQQRSTQLNKKRAIPNQGEILVIRRGWLTINNISLMKGGSKEYWFVLTAESLSWYKDEEEKEKKYMLPLDNLKIRDVEKGFMSNKHVFAIFNTEQRNVYKDLRQIELACDSQEDVDSWKASFLRAGVYPEKDQAENEDGAQENTFSMDPQLERQVETIRNLVDSYVAIINKSIRDLMPKTIMHLMINNTKAFIHHELLAYLYSSADQSSLMEESADQAQRRDDMLRMYHALKEALNIIGDISTSTVSTPVPPPVDDTWLQSASSHSPTPQRRPVSSIHPPGRPPAVRGPTPGPPLIPVPVGAAASFSAPPIPSRPGPQSVFANSDLFPAPPQIPSRPVRIPPGIPPGVPSRRPPAAPSRPTIIRPAEPSLLD
Fold Change (SWATH-MS): 0.7916 | Log (Fold Change) (SWATH-MS): -0.1015

B3: sp¦Q96E11¦RRFM_HUMAN (protein, UniProt Q96E11 56-262, looked up)
Ribosome-recycling factor, …: ATKKAKAKGKGQSQTRVNINAALVEDIINLEEVNEEMKSVIEALKDNFNKTLNIRTSPGSLDKIAVVTADGKLALNQISQISMKSPQLILVNMASFPECTAAAIKAIRESGMNLNPEVEGTLIRVPIPQVTREHREMLVKLAKQNTNKAKDSLRKVRTNSMNKLKKSKDTVSEDTIRLIEKQISQMADDTVAELDRHLAVKTKELLG
Fold Change (SWATH-MS): 0.7929 | Log (Fold Change) (SWATH-MS): -0.1008

B4: sp¦Q15006¦EMC2_HUMAN (protein, UniProt Q15006 2-297, looked up)
ER membrane protein complex …: AKVSELYDVTWEEMRDKMRKWREENSRNSEQIVEVGEELINEYASKLGDDIWIIYEQVMIAALDYGRDDLALFCLQELRRQFPGSHRVKRLTGMRFEAMERYDDAIQLYDRILQEDPTNTAARKRKIAIRKAQGKNVEAIRELNEYLEQFVGDQEAWHELAELYINEHDYAKAAFCLEELMMTNPHNHLYCQQYAEVKYTQGGLENLELSRKYFAQALKLNNRNMRALFGLYMSASHIASNPKASAKTKKDNMKYASWAASQINRAYQFAGRSKKETKYSLKAVEDMLETLQITQS
Fold Change (SWATH-MS): 0.7911 | Log (Fold Change) (SWATH-MS): -0.1017

B5: sp¦O94874¦UFL1_HUMAN (protein, UniProt O94874 2-794, looked up)
E3 UFM1-protein ligase 1: ADAWEEIRRLAADFQRAQFAEATQRLSERNCIEIVNKLIAQKQLEVVHTLDGKEYITPAQISKEMRDELHVRGGRVNIVDLQQVINVDLIHIENRIGDIIKSEKHVQLVLGQLIDENYLDRLAEEVNDKLQESGQVTISELCKTYDLPGNFLTQALTQRLGRIISGHIDLDNRGVIFTEAFVARHKARIRGLFSAITRPTAVNSLISKYGFQEQLLYSVLEELVNSGRLRGTVVGGRQDKAVFVPDIYSRTQSTWVDSFFRQNGYLEFDALSRLGIPDAVSYIKKRYKTTQLLFLKAACVGQGLVDQVEASVEEAISSGTWVDIAPLLPTSLSVEDAAILLQQVMRAFSKQASTVVFSDTVVVSEKFINDCTELFRELMHQKAEKEMKNNPVHLITEEDLKQISTLESVSTSKKDKKDERRRKATEGSGSMRGGGGGNAREYKIKKVKKKGRKDDDSDDESQSSHTGKKKPEISFMFQDEIEDFLRKHIQDAPEEFISELAEYLIKPLNKTYLEVVRSVFMSSTTSASGTGRKRTIKDLQEEVSNLYNNIRLFEKGMKFFADDTQAALTKHLLKSVCTDITNLIFNFLASDLMMAVDDPAAITSEIRKKILSKLSEETKVALTKLHNSLNEKSIEDFISCLDSAAEACDIMVKRGDKKRERQILFQHRQALAEQLKVTEDPALILHLTSVLLFQFSTHSMLHAPGRCVPQIIAFLNSKIPEDQHALLVKYQGLVVKQLVSQSKKTGQGDYPLNNELDKEQEDVASTTRKELQELSSSIKDLVLKSRKSSVTEE
Fold Change (SWATH-MS): 0.7911 | Log (Fold Change) (SWATH-MS): -0.1018

B6: sp¦Q9Y383¦LC7L2_HUMAN (protein, UniProt Q9Y383 1-392, looked up)
Putative RNA-binding protein …: MSAQAQMRAMLDQLMGTSRDGDTTRQRIKFSDDRVCKSHLLNCCPHDVLSGTRMDLGECLKVHDLALRADYEIASKEQDFFFELDAMDHLQSFIADCDRRTEVAKKRLAETQEEISAEVAAKAERVHELNEEIGKLLAKVEQLGAEGNVEESQKVMDEVEKARAKKREAEEVYRNSMPASSFQQQKLRVCEVCSAYLGLHDNDRRLADHFGGKLHLGFIEIREKLEELKRVVAEKQEKRNQERLKRREEREREEREKLRRSRSHSKNPKRSRSREHRRHRSRSMSRERKRRTRSKSREKRHRHRSRSSSRSRSRSHQRSRHSSRDRSRERSKRRSSKERFRDQDLASCDRDRSSRDRSPRDRDRKDKKRSYESANGRSEDRRSSEEREAGEI
Fold Change: 0.3527 | Log (Fold Change): -0.4526

B7: sp¦P43490¦NAMPT_HUMAN (protein, UniProt P43490 1-491, looked up)
Nicotinamide …: MNPAAEAEFNILLATDSYKVTHYKQYPPNTSKVYSYFECREKKTENSKLRKVKYEETVFYGLQYILNKYLKGKVVTKEKIQEAKDVYKEHFQDDVFNEKGWNYILEKYDGHLPIEIKAVPEGFVIPRGNVLFTVENTDPECYWLTNWIETILVQSWYPITVATNSREQKKILAKYLLETSGNLDGLEYKLHDFGYRGVSSQETAGIGASAHLVNFKGTDTVAGLALIKKYYGTKDPVPGYSVPAAEHSTITAWGKDHEKDAFEHIVTQFSSVPVSVVSDSYDIYNACEKIWGEDLRHLIVSRSTQAPLIIRPDSGNPLDTVLKVLEILGKKFPVTENSKGYKLLPPYLRVIQGDGVDINTLQEIVEGMKQKMWSIENIAFGSGGGLLQKLTRDLLNCSFKCSYVVTNGLGINVFKDPVADPNKRSKKGRLSLHRTPAGNFVTLEEGKGDLEEYGQDLLHTVFKNGKVTKSYSFDEIRKNAQLNIELEAAHH
Fold Change (SWATH-MS): 0.7897 | Log (Fold Change) (SWATH-MS): -0.1025

B8: sp¦Q9BTE7¦DCNL5_HUMAN (protein, UniProt Q9BTE7 1-237, looked up)
DCN1-like protein 5: MPVKKKRKSPGVAAAVAEDGGLKKCKISSYCRSQPPARLISGEEHFSSKKCLAWFYEYAGPDEVVGPEGMEKFCEDIGVEPENIIMLVLAWKLEAESMGFFTKEEWLKGMTSLQCDCTEKLQNKFDFLRSQLNDISSFKNIYRYAFDFARDKDQRSLDIDTAKSMLALLLGRTWPLFSVFYQYLEQSKYRVMNKDQWYNVLEFSRTVHADLSNYDEDGAWPVLLDEFVEWQKVRQTS
Fold Change (SWATH-MS): 0.7927 | Log (Fold Change) (SWATH-MS): -0.1009

B9: sp¦Q29RF7¦PDS5A_HUMAN (protein, UniProt Q29RF7 1-1337, looked up)
Sister chromatid cohesion …: MDFTAQPKPATALCGVVSADGKIAYPPGVKEITDKITTDEMIKRLKMVVKTFMDMDQDSEDEKQQYLPLALHLASEFFLRNPNKDVRLLVACCLADIFRIYAPEAPYTSHDKLKDIFLFITRQLKGLEDTKSPQFNRYFYLLENLAWVKSYNICFELEDCNEIFIQLFRTLFSVINNSHNKKVQMHMLDLMSSIIMEGDGVTQELLDSILINLIPAHKNLNKQSFDLAKVLLKRTVQTIEACIANFFNQVLVLGRSSVSDLSEHVFDLIQELFAIDPHLLLSVMPQLEFKLKSNDGEERLAVVRLLAKLFGSKDSDLATQNRPLWQCFLGRFNDIHVPVRLESVKFASHCLMNHPDLAKDLTEYLKVRSHDPEEAIRHDVIVTIITAAKRDLALVNDQLLGFVRERTLDKRWRVRKEAMMGLAQLYKKYCLHGEAGKEAAEKVSWIKDKLLHIYYQNSIDDKLLVEKIFAQYLVPHNLETEERMKCLYYLYASLDPNAVKALNEMWKCQNMLRSHVRELLDLHKQPTSEANCSAMFGKLMTIAKNLPDPGKAQDFVKKFNQVLGDDEKLRSQLELLISPTCSCKQADICVREIARKLANPKQPTNPFLEMVKFLLERIAPVHIDSEAISALVKLMNKSIEGTADDEEEGVSPDTAIRSGLELLKVLSFTHPTSFHSAETYESLLQCLRMEDDKVAEAAIQIFRNTGHKIETDLPQIRSTLIPILHQKAKRGTPHQAKQAVHCIHAIFTNKEVQLAQIFEPLSRSLNADVPEQLITPLVSLGHISMLAPDQFASPMKSVVANFIVKDLLMNDRSTGEKNGKLWSPDEEVSPEVLAKVQAIKLLVRWLLGMKNNQSKSANSTLRLLSAMLVSEGDLTEQKRISKSDMSRLRLAAGSAIMKLAQEPCYHEIITPEQFQLCALVINDECYQVRQIFAQKLHKALVKLLLPLEYMAIFALCAKDPVKERRAHARQCLLKNISIRREYIKQNPMATEKLLSLLPEYVVPYMIHLLAHDPDFTRSQDVDQLRDIKECLWFMLEVLMTKNENNSHAFMKKMAENIKLTRDAQSPDESKTNEKLYTVCDVALCVINSKSALCNADSPKDPVLPMKFFTQPEKDFCNDKSYISEETRVLLLTGKPKPAGVLGAVNKPLSATGRKPYVRSTGTETGSNINVNSELNPSTGNRSREQSSEAAETGVSENEENPVRIISVTPVKNIDPVKNKEINSDQATQGNISSDRGKKRTVTAAGAENIQQKTDEKVDESGPPAPSKPRRGRRPKSESQGNATKNDDLNKPINKGRKRAAVGQESPGGLEAGNAKAPKLQDLAKKAAPAERQIDLQR
Fold Change: 0.08984 | Log (Fold Change): -1.047
